{
  "source": "paper PMC5026484",
  "about": "(eLife, 2016)",
  "binders": {"B1": {"name": "bMERB domain (Rab binding domain) of Mical-cL, residues 534-683 (domain or fragment, human, UniProt O94851 1796-1945, looked up)", "chain": "KQEELKRLYKAQAIQRQLEEVEERQRASEIQGVRLEKALRGEADSGTQDEAQLLQEWFKLVLEKNKLMRYESELLIMAQELELEDHQSRLEQKLREKMLKEESQKDEKDLNEEQEVFTELMQVIEQRDKLVDSLEEQRIREKAEDQHFES", "notes": "Mical C-terminal like protein (Mical-cL), human, bMERB domain, residues 534-683; Limits are stated for the crystallised construct; also called Mical-cL_(534-683); RBD of Mical-cL"}, "B2": {"name": "bMERB domain (Rab binding domain) of Mical-1, residues 918-1067 (domain or fragment, human, UniProt Q8TDZ2 918-1067, looked up)", "chain": "KEEEMKRFCKAQTIQRRLNEIEAALRELEAEGVKLELALRRQSSSPEQQKKLWVGQLLQLVDKKNSLVAEEAELMITVQELNLEEKQWQLDQELRGYMNREENLKTAADRQAEDQVLRKLVDLVNQRDALIRFQEERRLSELALGTGAQG", "notes": "Mical-1, human, bMERB domain, residues 918-1067 (isoform 1); Limits are stated for the crystallised construct; also called Mical-1_(918-1067); RBD of Mical-1"}, "B3": {"name": "bMERB domain (Rab binding domain) of Mical-3, residues 1841-1990 (domain or fragment, human, UniProt Q7RTP6 1841-1990, looked up)", "chain": "KQEELKRLHRAQIIQRQLQQVEERQRRLEERGVAVEKALRGEAGMGKKDDPKLMQEWFKLVQEKNAMVRYESELMIFARELELEDRQSRLQQELRERMAVEDHLKTEEELSEEKQILNEMLEVVEQRDSLVALLEEQRLREREEDKDLEA", "notes": "Mical-3, human, whole predicted bMERB domain, residues 1841-1990 (isoform 1); printed elsewhere as 1841-1992; Limits are stated for the crystallised selenomethionine construct; also called Mical-3_(1841-1990); RBD of Mical-3"}, "B4": {"name": "bMERB domain (Rab binding domain) of EHBP1 (domain or fragment)", "chain": "not shown", "notes": "EHBP1 1047-1231 (bMERB domain with CaaX box) is named for the prenylation and localisation experiments only; also called RBD of EHBP1"}, "B5": {"name": "Rab8a, full length, loaded with GppNHp (natural protein, human, UniProt P61006 1-207, looked up)", "chain": "MAKTYDYLFKLLLIGDSGVGKTCVLFRFSEDAFNSTFISTIGIDFKIRTIELDGKRIKLQIWDTAGQERFRTITTAYYRGAMGIMLVYDITNEKSFDNIRNWIRNIEEHASADVEKMILGNKCDVNDKRQVSKERGEKLALDYGIKFMETSAKANINVENAFFTLARDIKAKMDKKLEGNSPQGSNQGVKITPDQQKRSSFFRCVLL", "notes": "Rab8a, human; called Rab8 in the results and Rab8aFl in the crystallisation methods; also called Rab8aFl; source: expressed and purified as described previously (Bleimling et al., 2009), loaded with GppNHp, gel filtration"}},
  "key": {"[1]": {"target": "B5", "experiment": "ITC; iTC200, 25°C; 400 µM Rab titrated into 20–40 µM bMERB domain in the cell; 20 mM Hepes pH 7.5, 50 mM NaCl, 2 mM MgCl2, 1 mM TCEP", "conditions": "both partners purified"}, "[2]": {"target": "T1, Rab13, loaded with GppNHp (UniProt P51153 1-203)", "T1 construct": "Rab13; also called Rab13:GppNHp; source: expressed and purified as described previously (Bleimling et al., 2009), loaded with GppNHp, gel filtration", "T1 sequence (looked up)": "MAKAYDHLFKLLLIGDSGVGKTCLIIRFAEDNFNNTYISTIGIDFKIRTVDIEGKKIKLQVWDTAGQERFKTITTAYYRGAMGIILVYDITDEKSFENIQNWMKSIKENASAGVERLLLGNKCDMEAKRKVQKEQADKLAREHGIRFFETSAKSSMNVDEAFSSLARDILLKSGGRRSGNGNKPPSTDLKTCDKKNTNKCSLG", "experiment": "ITC; iTC200, 25°C; 400 µM Rab titrated into 20–40 µM bMERB domain in the cell; 20 mM Hepes pH 7.5, 50 mM NaCl, 2 mM MgCl2, 1 mM TCEP", "conditions": "both partners purified"}, "[3]": {"target": "T2, Rab10, full length, loaded with GppNHp (human, UniProt P61026 1-200)", "T2 construct": "Rab10, human; Rab10Fl in the crystallisation methods; also called Rab10Fl; source: expressed and purified as described previously (Bleimling et al., 2009), loaded with GppNHp, gel filtration", "T2 sequence (looked up)": "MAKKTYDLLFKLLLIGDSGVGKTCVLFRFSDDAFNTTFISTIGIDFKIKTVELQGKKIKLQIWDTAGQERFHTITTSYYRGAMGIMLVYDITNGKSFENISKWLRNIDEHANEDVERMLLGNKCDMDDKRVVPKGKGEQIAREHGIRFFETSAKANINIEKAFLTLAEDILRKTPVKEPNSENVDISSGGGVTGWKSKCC", "experiment": "ITC; iTC200, 25°C; 400 µM Rab titrated into 20–40 µM bMERB domain in the cell; 20 mM Hepes pH 7.5, 50 mM NaCl, 2 mM MgCl2, 1 mM TCEP", "conditions": "both partners purified"}, "[4]": {"target": "B5", "experiment": "ITC; iTC200, 25°C; 400 µM Rab titrated into 20–40 µM bMERB domain in the cell; 20 mM Hepes pH 7.5, 50 mM NaCl, 2 mM MgCl2, 1 mM TCEP", "conditions": "both partners purified", "remark": "listed apart in the source"}, "[5]": {"target": "T1, Rab13, loaded with GppNHp", "experiment": "ITC; iTC200, 25°C; 400 µM Rab titrated into 20–40 µM bMERB domain in the cell; 20 mM Hepes pH 7.5, 50 mM NaCl, 2 mM MgCl2, 1 mM TCEP", "conditions": "both partners purified", "remark": "listed apart in the source"}, "[6]": {"target": "T3, Rab15, loaded with GppNHp (UniProt P59190 1-212)", "T3 construct": "Rab15; source: expressed and purified as described previously (Bleimling et al., 2009), loaded with GppNHp, gel filtration", "T3 sequence (looked up)": "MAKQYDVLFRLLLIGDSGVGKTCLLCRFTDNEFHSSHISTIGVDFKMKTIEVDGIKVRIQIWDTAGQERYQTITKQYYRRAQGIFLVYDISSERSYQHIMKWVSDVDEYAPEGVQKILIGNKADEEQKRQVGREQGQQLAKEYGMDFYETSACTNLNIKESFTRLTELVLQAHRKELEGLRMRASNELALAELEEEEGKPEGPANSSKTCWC", "experiment": "ITC; iTC200, 25°C; 400 µM Rab titrated into 20–40 µM bMERB domain in the cell; 20 mM Hepes pH 7.5, 50 mM NaCl, 2 mM MgCl2, 1 mM TCEP", "conditions": "both partners purified"}, "[7]": {"target": "the molecule itself", "experiment": "SEC; analytical size exclusion chromatography of the bMERB domain alone (112.5 µM); apparent size from the retention"}, "[8]": {"target": "T2, Rab10, full length, loaded with GppNHp", "experiment": "SEC; analytical size exclusion chromatography, Superdex S75 10/300 GL; 130 µM Rab:GppNHp + 112.5 µM (113 µM) bMERB domain; 20 mM Hepes pH 7.5, 50 mM NaCl, 2 mM DTE, 2 mM MgCl2", "conditions": "both partners purified"}, "[9]": {"target": "B5", "experiment": "SEC; analytical size exclusion chromatography, Superdex S75 10/300 GL; 130 µM Rab:GppNHp + 112.5 µM (113 µM) bMERB domain; 20 mM Hepes pH 7.5, 50 mM NaCl, 2 mM DTE, 2 mM MgCl2", "conditions": "both partners purified"}, "Rab10 residues 1-175": {"target": "T4, Rab10 residues 1-175 (human, UniProt P61026 1-175)", "T4 construct": "Rab10, human, residues 1-175; Used for the crystal of the 2:1 complex with Mical-1 918-1067; also called Rab10_(1-175); source: expressed and purified as described previously (Bleimling et al., 2009)", "T4 sequence (looked up)": "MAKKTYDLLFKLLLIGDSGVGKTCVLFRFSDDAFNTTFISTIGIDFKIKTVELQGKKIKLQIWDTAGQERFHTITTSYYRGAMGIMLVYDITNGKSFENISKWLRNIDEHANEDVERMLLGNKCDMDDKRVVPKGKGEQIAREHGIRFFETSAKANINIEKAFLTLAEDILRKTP", "experiment": "crystal structure; X-ray; sitting/hanging-drop vapour diffusion, 20°C; data from beamline X10SA, SLS", "conditions": "both partners purified"}, "[10]": {"target": "B4", "experiment": "ITC; iTC200, 25°C; 400 µM Rab titrated into 20–40 µM bMERB domain in the cell; 20 mM Hepes pH 7.5, 50 mM NaCl, 2 mM MgCl2, 1 mM TCEP", "conditions": "both partners purified"}, "[11]": {"target": "T5, bMERB domain (Rab binding domain) of EHBP1L1 (human, UniProt Q8N3D4 1340-1523)", "T5 construct": "EHBP1L1, human, bMERB domain; EHBP1L1 1340-1523 (bMERB domain with CaaX box) is named for the prenylation and localisation experiments only; also called RBD of EHBP1L1", "T5 sequence (Q8N3D4 1340-1523)": "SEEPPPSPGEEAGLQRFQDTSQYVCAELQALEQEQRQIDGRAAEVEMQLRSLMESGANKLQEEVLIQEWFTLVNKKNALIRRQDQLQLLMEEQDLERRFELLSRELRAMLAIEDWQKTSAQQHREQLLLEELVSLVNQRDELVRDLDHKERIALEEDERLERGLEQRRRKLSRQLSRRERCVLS", "experiment": "ITC; iTC200, 25°C; 400 µM Rab titrated into 20–40 µM bMERB domain in the cell; 20 mM Hepes pH 7.5, 50 mM NaCl, 2 mM MgCl2, 1 mM TCEP", "conditions": "both partners purified"}, "[12]": {"target": "B2", "experiment": "ITC; iTC200, 25°C; 400 µM Rab titrated into 20–40 µM bMERB domain in the cell; 20 mM Hepes pH 7.5, 50 mM NaCl, 2 mM MgCl2, 1 mM TCEP", "conditions": "both partners purified"}, "[13]": {"target": "B3", "experiment": "ITC; iTC200, 25°C; 400 µM Rab titrated into 20–40 µM bMERB domain in the cell; 20 mM Hepes pH 7.5, 50 mM NaCl, 2 mM MgCl2, 1 mM TCEP", "conditions": "both partners purified"}, "[14]": {"target": "B1", "experiment": "ITC; iTC200, 25°C; 400 µM Rab titrated into 20–40 µM bMERB domain in the cell; 20 mM Hepes pH 7.5, 50 mM NaCl, 2 mM MgCl2, 1 mM TCEP", "conditions": "both partners purified"}, "[15]": {"target": "T5, bMERB domain (Rab binding domain) of …", "experiment": "ITC; iTC200, 25°C; 400 µM Rab titrated into 20–40 µM bMERB domain in the cell; 20 mM Hepes pH 7.5, 50 mM NaCl, 2 mM MgCl2, 1 mM TCEP", "conditions": "both partners purified", "remark": "listed apart in the source"}, "[16]": {"target": "B2", "experiment": "ITC; iTC200, 25°C; 400 µM Rab titrated into 20–40 µM bMERB domain in the cell; 20 mM Hepes pH 7.5, 50 mM NaCl, 2 mM MgCl2, 1 mM TCEP", "conditions": "both partners purified", "remark": "listed apart in the source"}, "[17]": {"target": "B3", "experiment": "ITC; iTC200, 25°C; 400 µM Rab titrated into 20–40 µM bMERB domain in the cell; 20 mM Hepes pH 7.5, 50 mM NaCl, 2 mM MgCl2, 1 mM TCEP", "conditions": "both partners purified", "remark": "listed apart in the source"}, "[18]": {"target": "B3", "experiment": "SEC; analytical size exclusion chromatography with varying ratios of Rab8 and bMERB domain (1.2:1, 1.6:1, 2.2:1; effector 113 µM, Rab 130, 180 or 250 µM); stoichiometry from the peak of free excess Rab8", "conditions": "both partners purified"}},
  "data": [
    {"binder": "B1", "values": [
      {"measurement": "Kd", "setting": "[1]", "value": 233, "unit": "nM"},
      {"measurement": "Kd", "setting": "[2]", "value": 93, "unit": "nM"},
      {"measurement": "Kd", "setting": "[3]", "value": 790, "unit": "nM"},
      {"measurement": "Kd", "setting": "[4]", "value": 253, "unit": "nM"},
      {"measurement": "Kd", "setting": "[5]", "value": 94, "unit": "nM"},
      {"measurement": "Kd", "setting": "[6]", "value": 33, "unit": "nM"},
      {"measurement": "stoichiometry N", "setting": "[7]", "value": 2}
    ]},
    {"binder": "B2", "values": [
      {"measurement": "binding result", "setting": "[8]", "value": "binds"},
      {"measurement": "binding result", "setting": "[9]", "value": "binds"},
      {"measurement": "binding result", "setting": "Rab10 residues 1-175", "value": "binds"}
    ]},
    {"binder": "B3", "values": [
      {"measurement": "stoichiometry N", "setting": "[7]", "value": 2},
      {"measurement": "binding result", "setting": "[8]", "value": "binds"},
      {"measurement": "binding result", "setting": "[9]", "value": "binds"}
    ]},
    {"binder": "B4", "values": [
      {"measurement": "Kd", "setting": "[4]", "value": 397, "unit": "nM"}
    ]},
    {"binder": "B5", "values": [
      {"measurement": "stoichiometry N", "setting": "[10]", "value": 1},
      {"measurement": "stoichiometry N", "setting": "[11]", "value": 2},
      {"measurement": "stoichiometry N", "setting": "[12]", "value": 2},
      {"measurement": "stoichiometry N", "setting": "[13]", "value": 2},
      {"measurement": "stoichiometry N", "setting": "[14]", "value": 1},
      {"measurement": "KD,1 (two-site fit)", "setting": "[15]", "value": 159, "unit": "nM"},
      {"measurement": "KD,1 (two-site fit)", "setting": "[16]", "value": 55.5, "unit": "nM"},
      {"measurement": "KD,1 (two-site fit)", "setting": "[17]", "value": 27.9, "unit": "nM"},
      {"measurement": "stoichiometry N", "setting": "[18]", "value": 1}
    ]}
  ]
}
